Experimental data from the FLAb antibody collection (doi:10.7554/elife.23156).

B1: scFv; the commonest letter at each place (parent)
chain 1: EVKLDETGGGLVQPGRPMKLSCVASGFTFSDYWMNWVRQSPEKGLEWVAQIRNKPYNYETYYSDSVKGRFTISRDDSKSSVYLQMNNLRVEDMGIYYCTGSYYGMDYWGQGTSVTVS
chain 2: DVVMTQTPLSLPVSLGDQASISCRSSQSLVHSNGNTYLRWYLQKPGQSPKVLIYKVSNRFSGVPDRFSGSGSGTDFTLKISRVEAEDLGVYFCSQSTHVPWTFGGGTKLEIK

How the values were obtained:
fluorescein = variants of: B1; assay: Kd (Tite-Seq); conditions: with fluorescein; format: scFv 4-4-20, heavy + light
[1] = variants of: B1; assay: yeast surface expression (ratio to wild type); higher = more expressed; conditions: format: scFv 4-4-20, heavy + light

Variant | Kd (fluorescein) | yeast surface expression [1]
chain 1 EVKLDETGGGLVQPGRPMKLSCVASGFTFSDYWMNWVRQSPEKGLEWVAQIRNKPYNYETYYSDSVKGRFTISRDDSKSSVYLQMNNLRVEDMGIYYCTGSRYGGDYWGQGTSVTVS chain 2 DVVMTQTPLSLPVSLGDQASISCRSSQSLVHSNGNTYLRWYLQKPGQSPKVLIYKVSNRFSGVPDRFSGSGSGTDFTLKISRVEAEDLGVYFCSQSTHVPWTFGGGTKLEIK [chain 1 Y102R M105G] | ≥ 10 µM | 0.754
chain 1 EVKLDETGGGLVQPGRPMKLSCVASGFTFSDYWMNWVRQSPEKGLEWVAQIRNKPYNYETYYSDSVKGRFTISRDDSKSSVYLQMNNLRVEDMGIYYCTGSYYGMIYQGQGTSVTVS chain 2 DVVMTQTPLSLPVSLGDQASISCRSSQSLVHSNGNTYLRWYLQKPGQSPKVLIYKVSNRFSGVPDRFSGSGSGTDFTLKISRVEAEDLGVYFCSQSTHVPWTFGGGTKLEIK [chain 1 D106I W108Q] | ≥ 10 µM | 0.395
chain 1 EVKLDETGGGLVQPGRPMKLSCVASGFTFSSFWMNWVRQSPEKGLEWVAQIRNKPYNYETYYSDSVKGRFTISRDDSKSSVYLQMNNLRVEDMGIYYCTGSYYGMDYWGQGTSVTVS chain 2 DVVMTQTPLSLPVSLGDQASISCRSSQSLVHSNGNTYLRWYLQKPGQSPKVLIYKVSNRFSGVPDRFSGSGSGTDFTLKISRVEAEDLGVYFCSQSTHVPWTFGGGTKLEIK [chain 1 D31S Y32F] | 0.018 µM | 0.876
chain 1 EVKLDETGGGLVQPGRPMKLSCVASGFTFSDYWMNWVRQSPEKGLEWVAQIRNKPYNYETYYSDSVKGRFTISRDDSKSSVYLQMNNLRVEDMGIYYCTGVYYGHDYHGQGTSVTVS chain 2 DVVMTQTPLSLPVSLGDQASISCRSSQSLVHSNGNTYLRWYLQKPGQSPKVLIYKVSNRFSGVPDRFSGSGSGTDFTLKISRVEAEDLGVYFCSQSTHVPWTFGGGTKLEIK [chain 1 S101V M105H W108H] | ≥ 10 µM | 0.3
chain 1 EVKLDETGGGLVQPGRPMKLSCVASGFTFSDYWMNWVRQSPEKGLEWVAQIRNKPYNYETYYSDSVKGRFTISRDDSKSSVYLQMNNLRVEDMGIYYCTGSYYFMDYWGQGTSVTVS chain 2 DVVMTQTPLSLPVSLGDQASISCRSSQSLVHSNGNTYLRWYLQKPGQSPKVLIYKVSNRFSGVPDRFSGSGSGTDFTLKISRVEAEDLGVYFCSQSTHVPWTFGGGTKLEIK [chain 1 G104F] | ≥ 10 µM | 0.597
chain 1 EVKLDETGGGLVQPGRPMKLSCVASGFTFSDYWRMWVRQSPEKGLEWVAQIRNKPYNYETYYSDSVKGRFTISRDDSKSSVYLQMNNLRVEDMGIYYCTGSYYGMDYWGQGTSVTVS chain 2 DVVMTQTPLSLPVSLGDQASISCRSSQSLVHSNGNTYLRWYLQKPGQSPKVLIYKVSNRFSGVPDRFSGSGSGTDFTLKISRVEAEDLGVYFCSQSTHVPWTFGGGTKLEIK [chain 1 M34R N35M] | ≥ 10 µM | 1.25
chain 1 EVKLDETGGGLVQPGRPMKLSCVASGFWFADYWMNWVRQSPEKGLEWVAQIRNKPYNYETYYSDSVKGRFTISRDDSKSSVYLQMNNLRVEDMGIYYCTGSYYGMDYWGQGTSVTVS chain 2 DVVMTQTPLSLPVSLGDQASISCRSSQSLVHSNGNTYLRWYLQKPGQSPKVLIYKVSNRFSGVPDRFSGSGSGTDFTLKISRVEAEDLGVYFCSQSTHVPWTFGGGTKLEIK [chain 1 T28W S30A] | 0.00444 µM | 0.868
chain 1 EVKLDETGGGLVQPGRPMKLSCVASGFTFSDAWMNWYRQSPEKGLEWVAQIRNKPYNYETYYSDSVKGRFTISRDDSKSSVYLQMNNLRVEDMGIYYCTGSYYGMDYWGQGTSVTVS chain 2 DVVMTQTPLSLPVSLGDQASISCRSSQSLVHSNGNTYLRWYLQKPGQSPKVLIYKVSNRFSGVPDRFSGSGSGTDFTLKISRVEAEDLGVYFCSQSTHVPWTFGGGTKLEIK [chain 1 Y32A V37Y] | 0.205 µM | 1.23
chain 1 EVKLDETGGGLVQPGRPMKLSCVASGFTFNDYWMNCVRQSPEKGLEWVAQIRNKPYNYETYYSDSVKGRFTISRDDSKSSVYLQMNNLRVEDMGIYYCTGSYYGMDYWGQGTSVTVS chain 2 DVVMTQTPLSLPVSLGDQASISCRSSQSLVHSNGNTYLRWYLQKPGQSPKVLIYKVSNRFSGVPDRFSGSGSGTDFTLKISRVEAEDLGVYFCSQSTHVPWTFGGGTKLEIK [chain 1 S30N W36C] | ≥ 10 µM | 0.445
chain 1 EVKLDETGGGLVQPGRPMKLSCVASGFTFSDYWMNWVRQSPEKGLEWVAQIRNKPYNYETYYSDSVKGRFTISRDDSKSSVYLQMNNLRVEDMGIYYCTGSYYGDDYSGQGTSVTVS chain 2 DVVMTQTPLSLPVSLGDQASISCRSSQSLVHSNGNTYLRWYLQKPGQSPKVLIYKVSNRFSGVPDRFSGSGSGTDFTLKISRVEAEDLGVYFCSQSTHVPWTFGGGTKLEIK [chain 1 M105D W108S] | ≥ 10 µM | 0.458
chain 1 EVKLDETGGGLVQPGRPMKLSCVASGFTFSDYWMNWVRQSPEKGLEWVAQIRNKPYNYETYYSDSVKGRFTISRDDSKSSVYLQMNNLRVEDMGIYYCTGSYYGMDYPAQGTSVTVS chain 2 DVVMTQTPLSLPVSLGDQASISCRSSQSLVHSNGNTYLRWYLQKPGQSPKVLIYKVSNRFSGVPDRFSGSGSGTDFTLKISRVEAEDLGVYFCSQSTHVPWTFGGGTKLEIK [chain 1 W108P G109A] | 3.2 µM | 0.41
chain 1 EVKLDETGGGLVQPGRPMKLSCVASGFTVSDYWMVWVRQSPEKGLEWVAQIRNKPYNYETYYSDSVKGRFTISRDDSKSSVYLQMNNLRVEDMGIYYCTGSYYGMDYWGQGTSVTVS chain 2 DVVMTQTPLSLPVSLGDQASISCRSSQSLVHSNGNTYLRWYLQKPGQSPKVLIYKVSNRFSGVPDRFSGSGSGTDFTLKISRVEAEDLGVYFCSQSTHVPWTFGGGTKLEIK [chain 1 F29V N35V] | ≥ 10 µM | 0.239
